In US20140161800A1 (published 2014):

B1: TSC189 humanized SMIP (107-1A4 VL-VH#2 scFv-Fc) (Fc fusion)
chain: DIQMTQSPSAMSASVGDRVTITCRASKSISKYLAWFQQKPGKVPKLRIHSGSTLQSGVPSRFSGSGSGTEFTLTISSLQPEDFATYYCQQHIEYPWTFGQGTKVEIKRGGGGSGGGGSGGGGSQVQLVQSGAEVKKPGASVKVSCKASGYTFTDYYMHWVRQAPGQGLEWMGYFNPYNDYTRYAQKFQGRVTMTRDTSISTAYMELSSLRSDDTAVYYCARSDGYYDAMDYWGQGTTVTVSSSEPKSSDKTHTCPPCPAPEAAGAPSVFLFPPKPKDTLMISRTPEVTCVVVDVSHEDPEVKFNWYVDGVEVHNAKTKPREEQYNSTYRVVSVLTVLHQDWLNGKAYACAVSNKALPAPIEKTISKAKGQPREPQVYTLPPSRDELTKNQVSLTCLVKGFYPSDIAVEWESNGQPENNYKTTPPVLDSDGSFFLYSKLTVDKSRWQQGNVFSCSVMHEALHNHYTQKSLSLSPGK
B2: TSC092 chimeric SMIP (murine 107-1A4 VH-VL scFv-human Fc) (Fc fusion)
chain: EIQLQQSGPELVKPGASVKMSCKASGYTFTDYYMHWVKQNNGESLEWIGYFNPYNDYTRYNQNFNGKATLTVDKSSSTAYMQLNSLTSEDSAFYYCARSDGYYDAMDYWGQGTSVTVSSGGGGSGGGGSSGGGGSDVQITQSPSYLAASPGETITINCRASKSISKYLAWYQEKPGKANKLLIHSGSTLQSGIPSRFSGSGSGTDFTLTISSLEPEDFAMYYCQQHIEYPWTFGGGTKLEIKRASSEPKSSDKTHTCPPCPAPEAAGAPSVFLFPPKPKDTLMISRTPEVTCVVVDVSHEDPEVKFNWYVDGVEVHNAKTKPREEQYNSTYRVVSVLTVLHQDWLNGKAYACAVSNKALPAPIEKTISKAKGQPREPQVYTLPPSRDELTKNQVSLTCLVKGFYPSDIAVEWESNGQPENNYKTTPPVLDSDGSFFLYSKLTVDKSRWQQGNVFSCSVMHEALHNHYTQKSLSLSPGK
B3: 107-1A4 murine monoclonal antibody (antibody, V domains shown)
VH: EIQLQQSGPELVKPGASVKMSCKASGYTFTDYYMHWVKQNNGESLEWIGYFNPYNDYTRYNQNFNGKATLTVDKSSSTAYMQLNSLTSEDSAFYYCARSDGYYDAMDYWGQGTSVTVSS
VL: DVQITQSPSYLAASPGETITINCRASKSISKYLAWYQEKPGKANKLLIHSGSTLQSGIPSRFSGSGSGTDFTLTISSLEPEDFAMYYCQQHIEYPWTFGGGTKLEIKR
B4: TSC188 humanized SMIP (107-1A4 VL-VH#1 scFv-Fc) (Fc fusion)
chain: DIQMTQSPSAMSASVGDRVTITCRASKSISKYLAWFQQKPGKVPKLRIHSGSTLQSGVPSRFSGSGSGTEFTLTISSLQPEDFATYYCQQHIEYPWTFGQGTKVEIKRGGGGSGGGGSGGGGSEVQLVQSGAEVKKPGATVKISCKASGYTFTDYYMHWVQQAPGKGLEWMGYFNPYNDYTRYAEKFQGRVTITADTSTDTAYMELSSLRSEDTAVYYCARSDGYYDAMDYWGQGTTVTVSSSEPKSSDKTHTCPPCPAPEAAGAPSVFLFPPKPKDTLMISRTPEVTCVVVDVSHEDPEVKFNWYVDGVEVHNAKTKPREEQYNSTYRVVSVLTVLHQDWLNGKAYACAVSNKALPAPIEKTISKAKGQPREPQVYTLPPSRDELTKNQVSLTCLVKGFYPSDIAVEWESNGQPENNYKTTPPVLDSDGSFFLYSKLTVDKSRWQQGNVFSCSVMHEALHNHYTQKSLSLSPGK
B5: TSC085 chimeric SMIP (murine 107-1A4 VL-VH scFv-human Fc) (Fc fusion)
chain: DVQITQSPSYLAASPGETITINCRASKSISKYLAWYQEKPGKANKLLIHSGSTLQSGIPSRFSGSGSGTDFTLTISSLEPEDFAMYYCQQHIEYPWTFGGGTKLEIKRAGGGGSGGGGSSGGGGSEIQLQQSGPELVKPGASVKMSCKASGYTFTDYYMHWVKQNNGESLEWIGYFNPYNDYTRYNQNFNGKATLTVDKSSSTAYMQLNSLTSEDSAFYYCARSDGYYDAMDYWGQGTSVTVSSSEPKSSDKTHTCPPCPAPEAAGAPSVFLFPPKPKDTLMISRTPEVTCVVVDVSHEDPEVKFNWYVDGVEVHNAKTKPREEQYNSTYRVVSVLTVLHQDWLNGKAYACAVSNKALPAPIEKTISKAKGQPREPQVYTLPPSRDELTKNQVSLTCLVKGFYPSDIAVEWESNGQPENNYKTTPPVLDSDGSFFLYSKLTVDKSRWQQGNVFSCSVMHEALHNHYTQKSLSLSPGK

Legend:
[1] = target: T1, prostate-specific membrane antigen (PSMA) (human, UniProt Q04609 1-750); experiment: FACS binding; C4-2 cells; apparent EC50
T1 sequence (Q04609 whole entry): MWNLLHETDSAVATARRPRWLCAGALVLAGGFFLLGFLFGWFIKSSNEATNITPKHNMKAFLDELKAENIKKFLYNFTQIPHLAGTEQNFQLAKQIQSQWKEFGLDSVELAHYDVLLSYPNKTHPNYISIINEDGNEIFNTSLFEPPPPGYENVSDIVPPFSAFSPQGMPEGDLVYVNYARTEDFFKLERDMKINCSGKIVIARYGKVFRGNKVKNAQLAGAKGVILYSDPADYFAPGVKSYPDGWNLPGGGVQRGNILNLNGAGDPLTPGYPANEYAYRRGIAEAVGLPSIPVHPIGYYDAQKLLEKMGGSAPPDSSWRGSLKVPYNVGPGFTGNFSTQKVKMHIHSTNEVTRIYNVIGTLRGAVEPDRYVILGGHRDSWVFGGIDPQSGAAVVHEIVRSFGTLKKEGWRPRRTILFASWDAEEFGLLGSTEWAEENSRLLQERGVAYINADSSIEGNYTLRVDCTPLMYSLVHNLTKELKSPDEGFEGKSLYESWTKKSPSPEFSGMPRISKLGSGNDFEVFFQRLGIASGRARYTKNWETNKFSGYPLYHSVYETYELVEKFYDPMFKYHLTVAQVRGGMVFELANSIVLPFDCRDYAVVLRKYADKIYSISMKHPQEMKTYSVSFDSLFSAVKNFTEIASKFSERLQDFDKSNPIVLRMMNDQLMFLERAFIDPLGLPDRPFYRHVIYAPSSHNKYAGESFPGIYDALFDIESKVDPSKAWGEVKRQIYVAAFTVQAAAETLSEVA

[2] = target: T1, prostate-specific membrane antigen …; experiment: FACS binding; LNCaP cells

Row | Binder | EC50 [1] | EC50 [2]
1 | B1 | 2.1 nM | 
2 | B2 |  | 4 nM
3 | B3 |  | 5.4 nM
4 | B4 | 3.2 nM | 
5 | B5 |  | 4.9 nM
